Measured values published in patent US20150132307A1 (Hoffmann-La Roche, published 2015).

How the values were obtained:
[1] = target: T1, human Flag-tagged soluble TWEAK (amino acids 106-249) (human, UniProt O43508 106-249); experiment: receptor interaction ELISA: Flag-TWEAK 2.5 ng/ml preincubated with antibody, then on coated human Fn14:Fc (competitor m21)
T1 construct: The sentence gives amino acids 106-249 without naming the entry; also called Human TWEAK; not shown: Flag tag
T1 sequence: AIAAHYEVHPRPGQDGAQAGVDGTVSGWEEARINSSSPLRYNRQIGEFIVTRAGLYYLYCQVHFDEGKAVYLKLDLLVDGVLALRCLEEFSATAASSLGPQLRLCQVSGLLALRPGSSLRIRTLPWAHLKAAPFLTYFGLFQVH
Protocol: 96-well Maxisorp® plates (Nunc) were coated with 100 μl 1 μg/ml human Fn14:Fc (extracellular domain of human Fn14 (amino acids 1-75 of SEQ ID NO: 98) fused to Fc portion of human IgG1) in PBS per well for 1.5 h at room temperature and blocked with a solution of 5% FBS in PBS for 30 minutes at room temperature under shaking. […] After washing the Fn14-coated plate once with wash buffer (0.1% Tween® 20 in PBS), 100 μl of the TWEAK-antibody solution were transferred to each well and the plate was incubated for 1 h at room temperature, followed by four washes with wash buffer. Wells were filled with 100 μl of anti-FLAG-HRP detection antibody, diluted 1:5000 in blocking buffer, and incubated for 1 h at room temperature. After four more wash steps, the signal was developed by addition of 100 μl 3,3,5,5-Tetramethylbenzidine (TMB) solution for approximately ten minutes. The reaction was stopped by adding 100 μl of 1 N HCl, and absorbance measured at 450 nm (reference wavelength 620 nm).

[2] = target: T2, Biotinylated TWEAK (Example 7) (Homo sapiens (Human), UniProt O43508 99-249, Biotinylated (sites not given), captured on a streptavidin chip. The active form is a soluble homotrimer; one protomer is given.); experiment: Biacore crossblocking on immobilised biotinylated TWEAK; antibody 2 injected after saturating antibody 1 = TW-304chi (competitor m5), 100 nM each
T2 sequence: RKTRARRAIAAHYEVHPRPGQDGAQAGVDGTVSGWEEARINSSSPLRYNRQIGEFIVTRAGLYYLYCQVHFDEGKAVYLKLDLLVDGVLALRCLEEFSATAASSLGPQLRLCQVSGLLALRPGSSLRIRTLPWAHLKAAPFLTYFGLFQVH
Protocol: (§1) Because of the individual biochemical properties of the TWEAK protein another method had to be developed using TWEAK as ligand. Biotinylated TWEAK was immobilized on the streptavidin-coated chip surface and epitope coverage of consecutively injected antibodies (antibody 1) was measured. The aim was to detect the relative binding levels of a secondary antibody (antibody 2) in the presence of an already bound primary antibody. From these relative binding levels a quotient was calculated (Ab2/Ab1, molar ratio given in %, table 3).
(§2) 5 nM of biotinylated TWEAK was immobilized at 20 μl/min for 1 min on a streptavidin coated sensor flow cell. Primary and secondary mAbs were consecutively injected at 10 μl/min for 4 min into the system at 100 nM each until saturation of the respective TWEAK epitopes was achieved. As a reference an SA coated flow cell was used.

[3] = target: T3, Human recombinant soluble TWEAK (Example 6) (human, UniProt O43508 99-249, limits assumed); experiment: cell-based or functional assay
T3 sequence: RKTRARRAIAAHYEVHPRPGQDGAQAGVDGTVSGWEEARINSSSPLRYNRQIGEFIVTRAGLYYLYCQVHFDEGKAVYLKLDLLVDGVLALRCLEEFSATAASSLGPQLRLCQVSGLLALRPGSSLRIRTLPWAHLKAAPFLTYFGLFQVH

[4] = target: T4, Biotinylated human soluble TWEAK (amino acids 99-249 of SEQ ID NO: 68) (human, UniProt O43508 99-249, biotinylated); experiment: SPR (Biacore 2000), biotinylated soluble TWEAK on streptavidin chip, antibody 100 nM as analyte, 25 C
T4 construct: also called Human TWEAK
T4 sequence: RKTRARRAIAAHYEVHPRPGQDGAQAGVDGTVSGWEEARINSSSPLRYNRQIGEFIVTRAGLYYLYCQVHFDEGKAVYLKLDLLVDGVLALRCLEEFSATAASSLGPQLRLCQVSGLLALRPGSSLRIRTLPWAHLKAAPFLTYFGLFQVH
Protocol: A Biacore 2000 instrument was used with a Biacore streptavidin coated sensor mounted into the system. The system buffer HBS-ET (10 mM HEPES pH 7.4, 150 mM NaCl, 1 mM EDTA, 0.05% Tween® 20) was used at a flow rate of 100 μl/min. The sample buffer was the system buffer. Biotinylated human soluble TWEAK (amino acids 99-249 of SEQ ID NO: 68) and biotinylated murine soluble TWEAK (amino acids 81-225 of SEQ ID NO: 69) was immobilized on different flow cells on the SA sensor at 150 RU each. The flow cell FC1 was used as a blank reference cell. Each antibody was injected into the system as an analyte at 100 nM at 100 μl/min for 2 min association time. The dissociation of the immunecomplexes were monitored for 5 min. The sensor surface was washed with HBS-ET for 10 seconds and regenerated using 2×2 minutes injections with 10 mM glycine pH 2.25. This procedure was done at 25° C. The kinetically rate limiting step of the complex dissociation phase in the interval [240 s-300 s] was taken to calculate the dissociation rate kd [1/s] (Biacore Evaluation Software 4.0). According to the equation t1/2 diss=ln(2)/(60×kd), the half-life of the immunocomplexes in minutes was calculated.

[5] = target: T2, Biotinylated TWEAK (Example 7); experiment: Biacore crossblocking on immobilised biotinylated TWEAK; antibody 2 injected after saturating antibody 1 = TW-305chi (competitor m6), 100 nM each
Protocol: as §1, §2

[6] = target: T5, Mouse soluble TWEAK (untagged, Example 5) (mouse, UniProt O54907 105-249, limits assumed); experiment: receptor interaction ELISA: mouse soluble TWEAK 4 ng/ml preincubated with antibody, then on coated mouse Fn14:Fc (competitor m22)
T5 construct: also called Murine TWEAK
T5 sequence: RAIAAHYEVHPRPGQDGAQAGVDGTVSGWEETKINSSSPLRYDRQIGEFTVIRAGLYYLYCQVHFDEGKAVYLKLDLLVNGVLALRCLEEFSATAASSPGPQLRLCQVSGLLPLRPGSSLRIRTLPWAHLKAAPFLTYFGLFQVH
Protocol: Briefly, Maxisorp plates were coated with mouse Fn14:Fc (extracellular domain of mouse Fn14 (amino acids 1-75 of SEQ ID NO: 98) fused to Fc portion of human IgG1) as described above for human Fn14:Fc, followed by blocking and washing. […] After 1 h of incubation at room temperature and four washes, biotinylated anti-mouse TWEAK antibody at 125 ng/ml in blocking buffer was added for 1 h at room temperature, followed by another four wash steps. The TWEAK antibody was detected by incubation with streptavidin-HRP, diluted 1:5000 in blocking buffer, for 30 minutes at room temperature. Signal was developed and absorbance measured as described above.

[7] = target: T2, Biotinylated TWEAK (Example 7); experiment: Biacore crossblocking on immobilised biotinylated TWEAK; antibody 2 injected after saturating antibody 1 = TW-301chi (competitor m4), 100 nM each
Protocol: as §1, §2

[8] = target: T6, human Tweak-Fc (human, UniProt O43508 106-249, limits assumed); experiment: SPR (BIAcore T100), TWEAK ligand (Tweak-Fc) amine-coupled on C1 chip, Fab as analyte, 25 C, 1:1 model
T6 construct: not shown: Fc part
T6 sequence: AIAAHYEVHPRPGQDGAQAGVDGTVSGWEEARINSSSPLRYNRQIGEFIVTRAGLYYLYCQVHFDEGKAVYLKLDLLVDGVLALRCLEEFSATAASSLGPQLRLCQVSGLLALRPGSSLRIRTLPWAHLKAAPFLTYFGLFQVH

[9] = target: T6, human Tweak-Fc; experiment: SPR (BIAcore T100), TWEAK ligand (Tweak-Fc) amine-coupled on C1 chip, Fab as analyte, 25 C, apparent KD, 1:1 model
Protocol: Around 100 resonance units (RU) of TWEAK was immobilized on the C1 chip surface at pH 5.0 using an amine coupling kit supplied by the GE Healthcare. The sample and system buffer was PBS-T (10 mM phosphate buffered saline including 0.05% Tween20) pH 7.4. Association was measured by injection the bispecific antibody in various concentrations in solution for 3 min at a flow of 30 μl/min starting with 50 nM in 1:1 dilutions. The dissociation phase was monitored for up to 10 min and triggered by switching from the sample solution to running buffer. The surface was regenerated by three times 30 sec. washing with a 3M MgCl2 solution at a flow rate of 30 μl/min. Bulk refractive index differences were corrected by subtracting the response obtained from a blank-coupled surface. Blank injections are also subtracted (=double referencing). For calculation of apparent KD and other kinetic parameters the Langmuir 1:1 model was used.

[10] = target: T6, human Tweak-Fc; experiment: SPR (BIAcore T100), TWEAK ligand (Tweak-Fc) amine-coupled on C1 chip, Fab as analyte, 25 C

| Binder | IC50 [1] [ng/mL] | MR % (Ab2/Ab1, molar ratio) [2] [%] | Inhibition of IL-8 Secretion IC50 [ng/ml] (A375 cells) [3] [ng/mL] | t/2 diss [min] 25° C. [4] [min] | MR % (Ab2/Ab1, molar ratio) [5] [%] | IC50 [6] [ng/mL] | MR % (Ab2/Ab1, molar ratio) [7] [%] | koff [8] [s⁻¹] | kon [8] [M⁻¹ s⁻¹] | Kd [9] [pM] | T½ [10] [h] |
| --- | --- | --- | --- | --- | --- | --- | --- | --- | --- | --- | --- |
| <TWEAK> 301chi (antibody, human IgG1, kappa, V domains shown) VH: QSLEESGGGLVKPGASLTLTCTASGFTFNANYWICWVRQAPGKGLEWIACIYGGGNSGAYYASWATGRFTISRTSSTTVTLQMTSLTAADTATYFCARGPISRDLWGPGTLVTVSL VL: DVVMTQTPASVSEPVGGTVTIKCQASQSIYSSLAWYQQKPGQPPKLLIYDAFDLASGVSSRFTGSGSGTQFTLTISDLECADAATYYCQSTDYGNSWDGNPFGGGTEVVVTR | 2.8 | 0 | 121 | 110 | 0 | 6.4 | 0 | – | – | – | – |
| <TWEAK>305 (antibody 27) -Fab (Fab, V domains shown) VH: QVQLVQSGAEVKKPGSSVKVSCKASGFDFSTYYMSWVRQAPGQGLEWMGTVYVRQGTTYYASWLNGRVTITADESTSTAYMELSSLRSEDTAVYYCARGGYNYDDAFVIWGQGTLVTVSS VL: DIQMTQSPSSVSASVGDRVTITCQASQNIYSNLAWYQQKPGKAPKLLIYTASYLASGVPSRFSGSGSGTDYTLTISSLQPEDFATYYCQTAYYNSRPDTVAFGGGTKVEIK | – | – | – | – | – | – | – | 7.09e-05 | 4.72e+06 | 15 | 2.72 |
